Results on one substance are retold here after article doi:10.1101/2025.03.12.642832.

This assay deals with polyketide synthase 16 (Pks16) (D. discoideum (endogenous in AX2-214 cells)) (UniProt Q869W9). Put plainly: cryo-EM structure.

Consider “polyketide synthase 16 (Pks16), Q869W9 1-2603”, for which the stoichiometry N (usually a count of units in the complex or per binding partner) is 2.
